What was measured:
[1] = biological target: hamster JUNO (hamster); assay: live imaging-based adhesion molecule (LIAM) assay; BHK cells, non-inducible expression (cytomegalovirus promoter); separately transfected cells mixed in equal amounts 4 h after transfection, incubated 20 h, imaged every 6 min for 12 h at 40x, 37 °C, 5% CO2; read-outs: accumulation at the cell interface and translocation to the opposite cell, % of contacting cell pairs
[2] = biological target: mouse mCherry-JUNO (mouse) (UniProt Q9EQF4); assay: as above
[3] = biological target: human JUNO (human) (UniProt A6ND01); assay: as above
[4] = biological target: pig JUNO (pig); assay: as above
[5] = biological target: hamster JUNO (hamster); assay: live imaging-based adhesion molecule (LIAM) assay; HEK293T cells expressing IZUMO1 mixed with HEK293T cells expressing JUNO; read-out: accumulation at the interface of the cells, % of contacting cell pairs

Chain of human JUNO (human) (A6ND01 20-228): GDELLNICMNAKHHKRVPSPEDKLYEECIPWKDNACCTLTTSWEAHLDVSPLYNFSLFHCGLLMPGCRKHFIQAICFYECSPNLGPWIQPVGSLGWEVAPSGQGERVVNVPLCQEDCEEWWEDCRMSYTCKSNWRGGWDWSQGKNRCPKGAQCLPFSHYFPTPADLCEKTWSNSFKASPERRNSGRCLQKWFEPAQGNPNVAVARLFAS
Chain of mouse mCherry-JUNO (mouse) (Q9EQF4 20-222): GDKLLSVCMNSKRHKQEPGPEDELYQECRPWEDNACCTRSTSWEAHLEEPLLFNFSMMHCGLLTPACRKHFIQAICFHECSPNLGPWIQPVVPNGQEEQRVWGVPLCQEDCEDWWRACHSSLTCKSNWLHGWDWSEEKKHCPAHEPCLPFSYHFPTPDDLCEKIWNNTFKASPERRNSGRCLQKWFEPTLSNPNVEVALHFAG
Chain of human IZUMO1 (Q8IYV9 22-350): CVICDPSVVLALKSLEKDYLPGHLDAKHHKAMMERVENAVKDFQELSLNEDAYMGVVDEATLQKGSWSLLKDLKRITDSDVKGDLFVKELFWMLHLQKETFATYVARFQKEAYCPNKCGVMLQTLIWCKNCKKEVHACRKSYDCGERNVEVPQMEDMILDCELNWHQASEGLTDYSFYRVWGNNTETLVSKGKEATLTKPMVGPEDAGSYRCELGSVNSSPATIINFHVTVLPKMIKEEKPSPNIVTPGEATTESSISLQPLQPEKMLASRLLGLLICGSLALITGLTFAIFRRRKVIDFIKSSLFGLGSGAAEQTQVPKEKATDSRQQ

| IZUMO1 accumulation (% of contacting cell pairs) [1] | IZUMO1 translocation (% of contacting cell pairs) [1] | JUNO accumulation (% of contacting cell pairs) [1] | JUNO translocation (% of contacting cell pairs) [1] | IZUMO1 accumulation (% of contacting cell pairs) [2] | JUNO accumulation (% of contacting cell pairs) [2] | IZUMO1 accumulation (% of contacting cell pairs) [3] | IZUMO1 translocation (% of contacting cell pairs) [3] | JUNO accumulation (% of contacting cell pairs) [3] | JUNO translocation (% of contacting cell pairs) [3] | IZUMO1 accumulation (% of contacting cell pairs) [4] | IZUMO1 accumulation (% of contacting cell pairs) [5] | JUNO accumulation (% of contacting cell pairs) [5] | Substance |
| --- | --- | --- | --- | --- | --- | --- | --- | --- | --- | --- | --- | --- | --- |
| 77% | 44% | 16% | 28% | 33% | 25% |  |  |  |  |  |  |  | hamster IZUMO1 (natural protein) |
| 13% |  | 7.1% |  |  |  | 48% | 3.2% | 49% | 32% | 24% |  |  | pig IZUMO1 (natural protein) |
|  |  |  |  |  |  |  |  |  |  |  | 9.3% | 2.8% | human IZUMO1 (from UniProt Q8IYV9 22-350) (natural protein) |
